Results published in paper PMC5415106.

T1: GST-Dpb11-wild-type, P47027
T1 chain: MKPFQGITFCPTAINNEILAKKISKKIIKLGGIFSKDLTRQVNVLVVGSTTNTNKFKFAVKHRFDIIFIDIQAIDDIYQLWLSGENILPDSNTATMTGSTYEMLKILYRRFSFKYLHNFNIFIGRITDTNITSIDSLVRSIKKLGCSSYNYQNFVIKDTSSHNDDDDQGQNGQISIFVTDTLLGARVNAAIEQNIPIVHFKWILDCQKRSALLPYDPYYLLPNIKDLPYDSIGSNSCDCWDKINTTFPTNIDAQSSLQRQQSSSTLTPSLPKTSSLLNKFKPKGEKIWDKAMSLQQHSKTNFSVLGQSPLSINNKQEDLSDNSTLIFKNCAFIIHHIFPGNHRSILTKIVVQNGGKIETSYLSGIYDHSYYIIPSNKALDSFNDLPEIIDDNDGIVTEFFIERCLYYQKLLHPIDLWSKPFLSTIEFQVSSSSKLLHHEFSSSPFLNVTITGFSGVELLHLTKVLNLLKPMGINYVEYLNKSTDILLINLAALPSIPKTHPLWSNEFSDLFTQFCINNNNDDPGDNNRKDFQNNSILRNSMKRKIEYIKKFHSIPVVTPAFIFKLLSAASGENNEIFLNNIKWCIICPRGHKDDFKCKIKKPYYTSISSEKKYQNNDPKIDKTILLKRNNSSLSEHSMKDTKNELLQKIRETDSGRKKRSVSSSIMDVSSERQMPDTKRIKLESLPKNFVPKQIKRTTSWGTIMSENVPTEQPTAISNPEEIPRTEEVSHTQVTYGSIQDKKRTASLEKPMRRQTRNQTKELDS

T2: Sld3 (protein of Fig 3D; the legend prints 'CDK-phosphorylated Sld2'), P53135
T2 chain: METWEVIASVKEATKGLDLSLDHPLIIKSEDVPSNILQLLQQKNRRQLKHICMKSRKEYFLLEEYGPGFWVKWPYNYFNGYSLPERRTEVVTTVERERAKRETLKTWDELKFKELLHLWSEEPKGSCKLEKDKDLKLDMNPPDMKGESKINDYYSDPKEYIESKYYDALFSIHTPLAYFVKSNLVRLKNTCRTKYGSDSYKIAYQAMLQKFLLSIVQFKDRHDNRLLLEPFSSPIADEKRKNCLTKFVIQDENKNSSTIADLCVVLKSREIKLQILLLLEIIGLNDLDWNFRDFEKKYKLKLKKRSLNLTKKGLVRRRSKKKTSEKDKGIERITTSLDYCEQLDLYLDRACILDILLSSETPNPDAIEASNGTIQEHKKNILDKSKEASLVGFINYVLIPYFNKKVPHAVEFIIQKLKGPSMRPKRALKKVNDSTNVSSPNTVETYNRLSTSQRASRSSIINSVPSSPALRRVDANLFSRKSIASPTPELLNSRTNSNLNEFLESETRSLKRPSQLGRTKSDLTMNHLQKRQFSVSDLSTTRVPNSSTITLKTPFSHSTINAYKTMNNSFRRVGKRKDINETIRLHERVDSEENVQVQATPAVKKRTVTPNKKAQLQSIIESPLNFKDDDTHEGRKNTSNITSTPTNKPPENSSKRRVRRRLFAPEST

T3: PKA-GINS, Q12488
T3 chain 1: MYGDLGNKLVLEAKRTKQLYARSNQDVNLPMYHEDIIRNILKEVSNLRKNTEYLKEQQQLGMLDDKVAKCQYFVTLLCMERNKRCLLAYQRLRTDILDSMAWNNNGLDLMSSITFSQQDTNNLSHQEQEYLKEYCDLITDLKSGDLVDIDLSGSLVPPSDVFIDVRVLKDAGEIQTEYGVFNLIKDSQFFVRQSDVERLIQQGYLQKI
T3 chain 2: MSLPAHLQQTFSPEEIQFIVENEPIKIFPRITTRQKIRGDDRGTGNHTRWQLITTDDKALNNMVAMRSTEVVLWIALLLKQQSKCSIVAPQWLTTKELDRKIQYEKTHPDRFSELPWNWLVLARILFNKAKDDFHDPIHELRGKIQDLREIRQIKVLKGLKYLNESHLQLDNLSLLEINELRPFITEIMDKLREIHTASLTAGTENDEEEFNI
T3 chain 3: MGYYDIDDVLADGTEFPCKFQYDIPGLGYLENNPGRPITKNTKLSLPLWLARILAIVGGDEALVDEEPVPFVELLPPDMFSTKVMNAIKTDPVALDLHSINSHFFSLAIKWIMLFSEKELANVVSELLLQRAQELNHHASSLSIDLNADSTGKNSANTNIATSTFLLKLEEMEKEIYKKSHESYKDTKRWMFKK
T3 chain 4: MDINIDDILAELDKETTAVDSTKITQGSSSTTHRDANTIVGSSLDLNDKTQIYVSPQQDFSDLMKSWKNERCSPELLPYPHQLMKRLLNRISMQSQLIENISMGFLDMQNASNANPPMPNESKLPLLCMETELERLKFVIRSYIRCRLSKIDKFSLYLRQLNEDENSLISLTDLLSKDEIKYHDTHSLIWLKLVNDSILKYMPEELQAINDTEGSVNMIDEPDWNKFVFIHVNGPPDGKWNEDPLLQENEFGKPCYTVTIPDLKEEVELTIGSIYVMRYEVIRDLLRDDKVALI


Key:
Test in all cases: GST pull-down, phosphorimaging
Settings in all cases: chain shown with the change, 10 pmoles GST-Dpb11, read off a plot
[1] = target: T1, GST-Dpb11-wild-type, P47027
[2] = target: T2, Sld3 (protein of Fig 3D; the legend …)
[3] = target: T3, PKA-GINS, Q12488

| response ([1]; 1 pmole Sld2T84D input) | response ([1]; 3 pmoles Sld2T84D input) | response ([1]; 10 pmoles Sld2T84D input) | response ([2]; 1 pmole CDK-Sld3 input, parent: est. 0.34) | response ([2]; 3 pmoles CDK-Sld3 input, parent: est. 0.60) | response ([2]; 10 pmoles CDK-Sld3 input, parent: est. 1.5) | response ([3]; 1 pmole GINS input, parent: est. 0.60) | response ([3]; 3 pmoles GINS input, parent: est. 1.4) | response ([3]; 10 pmoles GINS input, parent: est. 2.5) | Binder |
| --- | --- | --- | --- | --- | --- | --- | --- | --- | --- |
| 0.28 pmol | 0.64 pmol | 1.6 pmol |  |  |  |  |  |  | Sld2 T84D (protein) MYSFELDKLKIELKTWEHDFIDKNKREPTRDDIKSLRTVRQMYKQYSTLKKKQSLQRQKVDTQESVELPAHKKDHDEVVEIGPDPQVYGKAISIFDMNLSPIKPIYMTFTNNIDVNNDNSKTISNESSPRKTILLKSSPADRTLVAEPISSVKRQLNFQMLNASSTRTPTSSPCKNRNGKLVEIKKCSPTINPPLESGKPSGYYGPNSPLKLDEENIHLNISLNSSTKRRLQIAYPSLQKTPSKDQADISTSFSPSPLIRRPLTKSLIELAREHTEIVKEFGVLQEEDIEEEEEGEEGENGYDEKNHEDDFGLEDELIRPKVVKDIFQEDDDNDDSQAREDTFIRKRPKRRKVIRRLRDNDPETETAGFERDVHKELVKLKRRKVAEFLGSTSQISDTEFEHDPEASSGVVSSEQKPTAKRKGRKKYNLVSNNFRRLKLPKKNRFSNGRWGRR |
|  |  |  | 0.29 pmol | 0.65 pmol | 1.4 pmol | 0.65 pmol | 1.4 pmol | 2.6 pmol | GST-Dpb11-wild-type, P47027 K463E; K469E; R538E; K549E (protein) MKPFQGITFCPTAINNEILAKKISKKIIKLGGIFSKDLTRQVNVLVVGSTTNTNKFKFAVKHRFDIIFIDIQAIDDIYQLWLSGENILPDSNTATMTGSTYEMLKILYRRFSFKYLHNFNIFIGRITDTNITSIDSLVRSIKKLGCSSYNYQNFVIKDTSSHNDDDDQGQNGQISIFVTDTLLGARVNAAIEQNIPIVHFKWILDCQKRSALLPYDPYYLLPNIKDLPYDSIGSNSCDCWDKINTTFPTNIDAQSSLQRQQSSSTLTPSLPKTSSLLNKFKPKGEKIWDKAMSLQQHSKTNFSVLGQSPLSINNKQEDLSDNSTLIFKNCAFIIHHIFPGNHRSILTKIVVQNGGKIETSYLSGIYDHSYYIIPSNKALDSFNDLPEIIDDNDGIVTEFFIERCLYYQKLLHPIDLWSKPFLSTIEFQVSSSSKLLHHEFSSSPFLNVTITGFSGVELLHLTEVLNLLEPMGINYVEYLNKSTDILLINLAALPSIPKTHPLWSNEFSDLFTQFCINNNNDDPGDNNRKDFQNNSILENSMKRKIEYIEKFHSIPVVTPAFIFKLLSAASGENNEIFLNNIKWCIICPRGHKDDFKCKIKKPYYTSISSEKKYQN |
